Measured values taken from the supplement of paper PMC9112550, “Optimization of the antimicrobial peptide Bac7 by deep mutational scanning” (BMC Biology, 2022).

Test system: Escherichia coli TOP10
Test: shrunken log2 fold change of peptide-encoding DNA abundance (4.5 h post-induction vs induction); higher = less antimicrobial activity (less host growth inhibition)
Conditions: time post-induction: 4.5 h; library: site-saturation at positions 5, 18, 19, 20
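Further: peptides expressed intracellularly from a pBAD plasmid library in pooled LB shake-flask culture, induced with 0.3% L-arabinose, DNA abundance read by NGS, three biological replicates, DESeq2 with apeglm shrinkage.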

Sequence | shrunken log2 fold change
RRIRFRPPRLPRPRPRPDHHPRP | -0.452
RRIRERPPRLPRPRPRPDAYPRP | -0.532
RRIRIRPPRLPRPRPRPLCDPRP | -0.655
RRIRPRPPRLPRPRPRPDRDPRP | -0.0875
RRIRDRPPRLPRPRPRPRFQPRP | 0.491
RRIRARPPRLPRPRPRPWAMPRP | 0.0453
RRIRYRPPRLPRPRPRPPWRPRP | 0.331
RRIRPRPPRLPRPRPRPEMDPRP | 0.116
RRIRYRPPRLPRPRPRPVRLPRP | -0.0236
RRIRLRPPRLPRPRPRPMCYPRP | -0.294
RRIRKRPPRLPRPRPRPRYCPRP | -0.142
RRIRHRPPRLPRPRPRPRNSPRP | -0.05
RRIRIRPPRLPRPRPRPKNSPRP | -0.503
RRIRARPPRLPRPRPRPQHVPRP | 0.0233
RRIRPRPPRLPRPRPRPFAAPRP | 0.227
RRIRRRPPRLPRPRPRPHFKPRP | -0.0168
RRIRYRPPRLPRPRPRPATIPRP | -1.16
RRIRVRPPRLPRPRPRPNVRPRP | -0.0431
RRIRGRPPRLPRPRPRPNIWPRP | 0.373
RRIRIRPPRLPRPRPRPDKAPRP | -0.00957
RRIRSRPPRLPRPRPRPWRQPRP | 0.11
RRIRCRPPRLPRPRPRPLHNPRP | -0.264
RRIRCRPPRLPRPRPRPRSTPRP | 0.0137
RRIRDRPPRLPRPRPRPHYSPRP | -0.16
RRIRIRPPRLPRPRPRPKGRPRP | 0.182

Sequence | shrunken log2 fold change
RRIRERPPRLPRPRPRPYRTPRP | -1.15
RRIRCRPPRLPRPRPRPAGNPRP | 0.0404
RRIRERPPRLPRPRPRPGAHPRP | 0.0368
RRIRWRPPRLPRPRPRPVDDPRP | -0.0142
RRIRRRPPRLPRPRPRPHGGPRP | 0.0449
RRIRIRPPRLPRPRPRPMYPPRP | -0.0642
RRIRRRPPRLPRPRPRPPTWPRP | 0.336
RRIRLRPPRLPRPRPRPKHEPRP | 0.053
RRIRMRPPRLPRPRPRPDCHPRP | 1.49
RRIRQRPPRLPRPRPRPITCPRP | -0.0276
RRIRARPPRLPRPRPRPHNAPRP | -0.0368
RRIRPRPPRLPRPRPRPGWGPRP | 0.458
RRIRWRPPRLPRPRPRPEFSPRP | 0.109
RRIRSRPPRLPRPRPRPHKLPRP | -0.228
RRIRSRPPRLPRPRPRPCPFPRP | -0.138
RRIRERPPRLPRPRPRPEPQPRP | 0.519
RRIRHRPPRLPRPRPRPPRYPRP | 0.0399
RRIRSRPPRLPRPRPRPRCWPRP | 0.329
RRIRMRPPRLPRPRPRPDRCPRP | 0.0778
RRIRIRPPRLPRPRPRPEYWPRP | -0.0686
RRIRYRPPRLPRPRPRPAWVPRP | 0.0366
RRIRGRPPRLPRPRPRPTFWPRP | 1.51
RRIRCRPPRLPRPRPRPWDCPRP | -0.469
RRIRLRPPRLPRPRPRPHHKPRP | -0.644
RRIRMRPPRLPRPRPRPDAYPRP | 0.414

Sequence | shrunken log2 fold change
RRIRYRPPRLPRPRPRPQTEPRP | 0.0019
RRIRVRPPRLPRPRPRPPPKPRP | 1.11
RRIRGRPPRLPRPRPRPGQMPRP | 0.483
RRIRKRPPRLPRPRPRPFLCPRP | 0.158
RRIRIRPPRLPRPRPRPCLAPRP | -0.693
RRIRPRPPRLPRPRPRPPGIPRP | 0.151
RRIRWRPPRLPRPRPRPMWGPRP | 0.117
RRIRCRPPRLPRPRPRPLRLPRP | 0.0282
RRIRGRPPRLPRPRPRPKRIPRP | 0.147
RRIRMRPPRLPRPRPRPPLTPRP | 0.843
RRIRKRPPRLPRPRPRPAFGPRP | 0.564
RRIRDRPPRLPRPRPRPHACPRP | 0.00242
RRIRMRPPRLPRPRPRPGNKPRP | -0.0821
RRIRHRPPRLPRPRPRPNCFPRP | 0.0486
RRIRVRPPRLPRPRPRPEADPRP | 0.0974
RRIRTRPPRLPRPRPRPPSNPRP | -0.244
RRIRYRPPRLPRPRPRPNDHPRP | -1.23
RRIRFRPPRLPRPRPRPITRPRP | 0.114
RRIRIRPPRLPRPRPRPGDAPRP | 0.0793
RRIRTRPPRLPRPRPRPNWAPRP | -0.243
RRIRGRPPRLPRPRPRPYHKPRP | -0.331
RRIRLRPPRLPRPRPRPCIKPRP | -0.752
RRIRKRPPRLPRPRPRPWNVPRP | 0.0194
RRIRDRPPRLPRPRPRPQFTPRP | 0.0284
RRIRVRPPRLPRPRPRPGYNPRP | -0.193

Sequence | shrunken log2 fold change
RRIRPRPPRLPRPRPRPIMIPRP | -0.169
RRIRKRPPRLPRPRPRPHFTPRP | -0.0881
RRIRHRPPRLPRPRPRPLMYPRP | -0.711
RRIRGRPPRLPRPRPRPFPRPRP | 1.01
RRIRKRPPRLPRPRPRPIPIPRP | 0.136
RRIRYRPPRLPRPRPRPIPEPRP | 0.0704
RRIRFRPPRLPRPRPRPSAFPRP | -0.204
RRIRKRPPRLPRPRPRPSYYPRP | -0.983
RRIRARPPRLPRPRPRPAESPRP | 0.531
RRIRWRPPRLPRPRPRPEWIPRP | 0.475
RRIRKRPPRLPRPRPRPPGTPRP | 0.794
RRIRMRPPRLPRPRPRPHEPPRP | -0.0151
RRIRMRPPRLPRPRPRPPVHPRP | 0.595
RRIRARPPRLPRPRPRPKPQPRP | 0.533
RRIRNRPPRLPRPRPRPMPMPRP | 0.0119
RRIRFRPPRLPRPRPRPDSPPRP | -0.168
RRIRWRPPRLPRPRPRPRSGPRP | 0.345
RRIRHRPPRLPRPRPRPCVFPRP | -0.0413
RRIRSRPPRLPRPRPRPMMAPRP | -0.199
RRIRLRPPRLPRPRPRPHKDPRP | -0.697
RRIRPRPPRLPRPRPRPMVDPRP | -0.019
RRIRARPPRLPRPRPRPTIYPRP | 0.0113
RRIRWRPPRLPRPRPRPVSQPRP | 0.139
RRIRPRPPRLPRPRPRPWWKPRP | -0.0424
RRIRIRPPRLPRPRPRPHSVPRP | -0.0376

Sequence | shrunken log2 fold change
RRIRIRPPRLPRPRPRPRSCPRP | 0.16
RRIRTRPPRLPRPRPRPRKFPRP | 0.0711
RRIRGRPPRLPRPRPRPHTMPRP | -0.175
RRIRLRPPRLPRPRPRPTTAPRP | 0.115
RRIRFRPPRLPRPRPRPPALPRP | 0.509
RRIRIRPPRLPRPRPRPTHIPRP | -0.495
RRIRYRPPRLPRPRPRPYVHPRP | -1.05
RRIRQRPPRLPRPRPRPNRPPRP | -0.056
RRIRPRPPRLPRPRPRPLNLPRP | 0.177
RRIRIRPPRLPRPRPRPQISPRP | 0.0222
RRIRPRPPRLPRPRPRPFYIPRP | -0.312
RRIRRRPPRLPRPRPRPYVVPRP | -0.121
RRIRARPPRLPRPRPRPNMMPRP | -0.142
RRIRPRPPRLPRPRPRPIGTPRP | -0.39
RRIRWRPPRLPRPRPRPGPAPRP | 1.65
RRIRCRPPRLPRPRPRPAQRPRP | 0.613
RRIRMRPPRLPRPRPRPPDPPRP | 1.25
RRIRERPPRLPRPRPRPLPTPRP | -0.0242
RRIRTRPPRLPRPRPRPCIHPRP | -0.11
RRIRWRPPRLPRPRPRPIYFPRP | -0.198
RRIRSRPPRLPRPRPRPSCRPRP | -0.0379
RRIRERPPRLPRPRPRPWPGPRP | -0.0345
RRIRHRPPRLPRPRPRPAFCPRP | 0.0444
RRIRSRPPRLPRPRPRPIDFPRP | -0.0652
RRIRHRPPRLPRPRPRPVIPPRP | -0.0562

Sequence | shrunken log2 fold change
RRIRCRPPRLPRPRPRPWVFPRP | -0.0816
RRIRCRPPRLPRPRPRPGGLPRP | 0.17
RRIRRRPPRLPRPRPRPVHRPRP | -0.0888
RRIRARPPRLPRPRPRPSQEPRP | 0.0769
RRIRGRPPRLPRPRPRPFCEPRP | 0.403
RRIRIRPPRLPRPRPRPKDHPRP | -0.222
RRIRFRPPRLPRPRPRPISTPRP | -0.24
RRIRGRPPRLPRPRPRPWPMPRP | 0.31
RRIRFRPPRLPRPRPRPREAPRP | 0.115
RRIRMRPPRLPRPRPRPKFAPRP | 0.51
RRIRGRPPRLPRPRPRPNACPRP | 0.212
RRIRMRPPRLPRPRPRPKHMPRP | 0.171
RRIRARPPRLPRPRPRPSCAPRP | 0.689
RRIRFRPPRLPRPRPRPCSVPRP | -0.338
RRIRPRPPRLPRPRPRPMWQPRP | 0.0423
RRIRDRPPRLPRPRPRPKTGPRP | -0.111
RRIRERPPRLPRPRPRPDYIPRP | -0.0061
RRIRHRPPRLPRPRPRPVFVPRP | -0.182
RRIRFRPPRLPRPRPRPQRLPRP | 0.106
RRIRGRPPRLPRPRPRPIDEPRP | 0.433
RRIRPRPPRLPRPRPRPGHWPRP | 0.123
RRIRDRPPRLPRPRPRPWIRPRP | -0.24
RRIRMRPPRLPRPRPRPNFAPRP | 0.318
RRIRGRPPRLPRPRPRPVFWPRP | 0.768
RRIRRRPPRLPRPRPRPYIYPRP | -0.268
